T1: ARHGAP21, Q5T5U3
T1 sequence (Q5T5U3 45-169, limits assumed, looked up): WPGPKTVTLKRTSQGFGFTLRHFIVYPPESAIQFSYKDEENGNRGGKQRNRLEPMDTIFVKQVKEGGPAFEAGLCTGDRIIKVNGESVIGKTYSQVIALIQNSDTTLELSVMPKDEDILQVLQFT

T2: DFNB31_2, Q9P202
T2 sequence (Q9P202 274-371, limits assumed, looked up): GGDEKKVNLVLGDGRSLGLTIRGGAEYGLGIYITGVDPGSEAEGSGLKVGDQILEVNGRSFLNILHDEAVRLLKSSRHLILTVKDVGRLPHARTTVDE

T3: GRIP1_7, Q9Y3R0
T3 sequence (Q9Y3R0 999-1096, limits assumed, looked up): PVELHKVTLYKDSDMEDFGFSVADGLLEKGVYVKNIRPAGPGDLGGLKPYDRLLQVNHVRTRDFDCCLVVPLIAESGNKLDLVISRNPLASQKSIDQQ

T4: HTRA3, P83110
T4 sequence (P83110 354-453, limits assumed, looked up): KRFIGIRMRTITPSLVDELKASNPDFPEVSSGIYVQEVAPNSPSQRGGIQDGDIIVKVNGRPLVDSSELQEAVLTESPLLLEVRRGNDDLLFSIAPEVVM

T5: PDZD2_2, O15018
T5 sequence (O15018 329-429, limits assumed, looked up): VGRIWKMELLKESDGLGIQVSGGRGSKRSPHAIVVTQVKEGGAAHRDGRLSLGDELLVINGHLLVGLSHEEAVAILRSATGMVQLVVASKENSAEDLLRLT

T6: SYNJ2BP, P57105
T6 sequence (P57105 8-110, limits assumed, looked up): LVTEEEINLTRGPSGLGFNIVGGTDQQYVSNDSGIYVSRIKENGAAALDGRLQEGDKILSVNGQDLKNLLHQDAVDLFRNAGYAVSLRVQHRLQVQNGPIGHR

T7: TX1BP3, O14907
T7 sequence (O14907 10-122, limits assumed, looked up): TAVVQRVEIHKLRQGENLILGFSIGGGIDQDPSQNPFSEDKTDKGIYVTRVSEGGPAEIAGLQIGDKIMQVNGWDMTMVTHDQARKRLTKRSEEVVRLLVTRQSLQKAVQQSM

T8: LIN7A, O14910
T8 sequence (O14910 103-200, limits assumed, looked up): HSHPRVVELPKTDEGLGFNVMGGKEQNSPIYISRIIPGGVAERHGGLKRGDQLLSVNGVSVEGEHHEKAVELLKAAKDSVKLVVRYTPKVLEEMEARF


How the values were obtained:
Assay in all cases: holdup assay
Parameters in all cases: key: below the threshold = too weak to quantify, mostly under pKd 3.1 to 4
Conditions in all cases: plain residues with an end cap or a label only (N-terminal biotin on a linker: ado-ado)
ARHGAP21, Q5T5U3 = biological target: T1, ARHGAP21, Q5T5U3
DFNB31_2, Q9P202 = biological target: T2, DFNB31_2, Q9P202
DLG2_2, Q15700 = biological target: DLG2_2, Q15700
Chain of DLG2_2, Q15700 (Q15700 189-283): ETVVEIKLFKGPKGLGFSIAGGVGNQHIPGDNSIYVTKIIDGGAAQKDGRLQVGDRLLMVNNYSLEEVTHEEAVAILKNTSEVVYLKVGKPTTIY

DLG4_3, P78352 = biological target: DLG4_3, P78352
Chain of DLG4_3, P78352 (P78352 306-403): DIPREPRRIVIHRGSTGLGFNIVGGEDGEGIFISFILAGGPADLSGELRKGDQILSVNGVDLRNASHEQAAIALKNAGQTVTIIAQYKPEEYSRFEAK

DLG5_1, Q8TDM6 = biological target: DLG5_1, Q8TDM6
Chain of DLG5_1, Q8TDM6 (Q8TDM6 617-713): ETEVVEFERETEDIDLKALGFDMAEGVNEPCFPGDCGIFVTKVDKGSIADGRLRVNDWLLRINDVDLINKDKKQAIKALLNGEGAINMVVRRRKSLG

FRMPD2_1, Q68DX3 = biological target: FRMPD2_1, Q68DX3
Chain of FRMPD2_1, Q68DX3 (Q68DX3 770-861): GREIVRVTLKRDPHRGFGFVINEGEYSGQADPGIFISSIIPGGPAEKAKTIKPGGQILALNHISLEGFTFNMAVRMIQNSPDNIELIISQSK

FRMPD4, Q14CM0 = biological target: FRMPD4, Q14CM0
Chain of FRMPD4, Q14CM0 (Q14CM0 67-160): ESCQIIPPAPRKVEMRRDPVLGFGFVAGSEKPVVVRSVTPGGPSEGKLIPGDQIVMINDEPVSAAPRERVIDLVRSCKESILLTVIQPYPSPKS

GORASP1, Q9BQQ3 = biological target: GORASP1, Q9BQQ3
Chain of GORASP1, Q9BQQ3 (Q9BQQ3 1-208): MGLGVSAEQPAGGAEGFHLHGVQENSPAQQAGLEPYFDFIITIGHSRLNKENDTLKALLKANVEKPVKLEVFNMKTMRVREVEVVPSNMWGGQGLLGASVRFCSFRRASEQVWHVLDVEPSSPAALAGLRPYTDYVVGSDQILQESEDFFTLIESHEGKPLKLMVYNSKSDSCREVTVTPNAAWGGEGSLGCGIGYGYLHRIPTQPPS

GRID2IP_2, A4D2P6 = biological target: GRID2IP_2, A4D2P6
Chain of GRID2IP_2, A4D2P6 (A4D2P6 272-370): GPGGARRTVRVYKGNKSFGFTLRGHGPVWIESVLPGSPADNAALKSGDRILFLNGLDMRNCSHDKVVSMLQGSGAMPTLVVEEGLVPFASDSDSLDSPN

GRIP1_7, Q9Y3R0 = biological target: T3, GRIP1_7, Q9Y3R0
GRIP2_3, Q9C0E4 = biological target: GRIP2_3, Q9C0E4
Chain of GRIP2_3, Q9C0E4 (Q9C0E4 238-339): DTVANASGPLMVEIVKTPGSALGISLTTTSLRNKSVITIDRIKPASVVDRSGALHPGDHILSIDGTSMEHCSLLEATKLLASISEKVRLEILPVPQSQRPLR

HTRA1, Q92743 = biological target: HTRA1, Q92743
Chain of HTRA1, Q92743 (Q92743 360-477): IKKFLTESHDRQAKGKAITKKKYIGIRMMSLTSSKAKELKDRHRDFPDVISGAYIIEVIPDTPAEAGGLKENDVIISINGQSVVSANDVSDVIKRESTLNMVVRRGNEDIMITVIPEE

HTRA3, P83110 = biological target: T4, HTRA3, P83110
IL16_3, Q14005 = biological target: IL16_3, Q14005
Chain of IL16_3, Q14005 (Q14005 1107-1207): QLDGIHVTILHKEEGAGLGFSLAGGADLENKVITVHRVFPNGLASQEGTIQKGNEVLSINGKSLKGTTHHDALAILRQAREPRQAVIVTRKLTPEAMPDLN

Inadl_10, Q8NI35 = biological target: Inadl_10, Q8NI35
Chain of Inadl_10, Q8NI35 (Q8NI35 1673-1763): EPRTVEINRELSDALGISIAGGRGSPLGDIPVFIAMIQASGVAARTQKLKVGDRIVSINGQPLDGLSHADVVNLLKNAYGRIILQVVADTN

Inadl_2, Q8NI35 = biological target: Inadl_2, Q8NI35
Chain of Inadl_2, Q8NI35 (Q8NI35 238-335): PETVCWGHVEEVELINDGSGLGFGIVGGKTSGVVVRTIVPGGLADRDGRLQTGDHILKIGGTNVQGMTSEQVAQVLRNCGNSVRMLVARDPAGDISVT

Inadl_5, Q8NI35 = biological target: Inadl_5, Q8NI35
Chain of Inadl_5, Q8NI35 (Q8NI35 673-780): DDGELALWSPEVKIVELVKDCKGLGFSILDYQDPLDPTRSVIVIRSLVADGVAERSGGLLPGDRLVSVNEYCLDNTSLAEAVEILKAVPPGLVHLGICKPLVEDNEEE

Inadl_8, Q8NI35 = biological target: Inadl_8, Q8NI35
Chain of Inadl_8, Q8NI35 (Q8NI35 1425-1530): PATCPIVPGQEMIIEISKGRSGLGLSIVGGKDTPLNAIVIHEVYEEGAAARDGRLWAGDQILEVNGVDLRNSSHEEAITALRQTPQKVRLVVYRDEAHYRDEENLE

LNX1_2, Q8TBB1 = biological target: LNX1_2, Q8TBB1
Chain of LNX1_2, Q8TBB1 (Q8TBB1 371-470): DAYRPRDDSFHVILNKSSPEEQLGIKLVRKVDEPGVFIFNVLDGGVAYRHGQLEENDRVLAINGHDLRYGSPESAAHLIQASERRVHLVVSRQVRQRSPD

MAGI2_3, Q86UL8 = biological target: MAGI2_3, Q86UL8
Chain of MAGI2_3, Q86UL8 (Q86UL8 600-682): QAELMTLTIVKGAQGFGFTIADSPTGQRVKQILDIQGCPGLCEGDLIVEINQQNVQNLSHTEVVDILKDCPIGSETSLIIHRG

MAGI2_5, Q86UL8 = biological target: MAGI2_5, Q86UL8
Chain of MAGI2_5, Q86UL8 (Q86UL8 915-1017): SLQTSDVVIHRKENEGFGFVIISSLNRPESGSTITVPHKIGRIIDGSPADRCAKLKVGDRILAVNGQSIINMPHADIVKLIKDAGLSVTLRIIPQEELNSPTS

MAGI3_2, Q5TCQ9 = biological target: MAGI3_2, Q5TCQ9
Chain of MAGI3_2, Q5TCQ9 (Q5TCQ9 398-503): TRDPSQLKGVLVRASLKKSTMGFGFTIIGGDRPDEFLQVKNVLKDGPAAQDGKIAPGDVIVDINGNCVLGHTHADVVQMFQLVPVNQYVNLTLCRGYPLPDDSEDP

PDZD2_2, O15018 = biological target: T5, PDZD2_2, O15018
PICK1, Q9NRD5 = biological target: PICK1, Q9NRD5
Chain of PICK1, Q9NRD5 (Q9NRD5 17-115): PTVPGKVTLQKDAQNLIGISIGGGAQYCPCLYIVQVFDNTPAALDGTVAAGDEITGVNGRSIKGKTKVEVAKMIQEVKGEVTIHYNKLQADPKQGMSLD

SCRIB_2, Q14160 = biological target: SCRIB_2, Q14160
Chain of SCRIB_2, Q14160 (Q14160 857-960): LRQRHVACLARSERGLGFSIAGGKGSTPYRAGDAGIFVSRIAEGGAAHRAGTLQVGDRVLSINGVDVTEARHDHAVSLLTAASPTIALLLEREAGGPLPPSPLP

SYNJ2BP, P57105 = biological target: T6, SYNJ2BP, P57105
TJP1_2, Q07157 = biological target: TJP1_2, Q07157
Chain of TJP1_2, Q07157 (Q07157 181-274): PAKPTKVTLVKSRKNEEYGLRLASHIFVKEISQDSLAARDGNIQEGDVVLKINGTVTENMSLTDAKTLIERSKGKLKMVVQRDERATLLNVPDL

TX1BP3, O14907 = biological target: T7, TX1BP3, O14907
LIN7A, O14910 = biological target: T8, LIN7A, O14910

pKd (DFNB31_2, Q9P202)	pKd (DLG4_3, P78352)	pKd (DLG5_1, Q8TDM6)	pKd (FRMPD4, Q14CM0)	pKd (GORASP1, Q9BQQ3)	pKd (GRIP1_7, Q9Y3R0)	pKd (GRIP2_3, Q9C0E4)	pKd (Inadl_10, Q8NI35)	pKd (Inadl_2, Q8NI35)	pKd (Inadl_5, Q8NI35)	pKd (Inadl_8, Q8NI35)	pKd (LNX1_2, Q8TBB1)	pKd (MAGI2_3, Q86UL8)	pKd (MAGI2_5, Q86UL8)	pKd (MAGI3_2, Q5TCQ9)	pKd (PDZD2_2, O15018)	pKd (PICK1, Q9NRD5)	pKd (SCRIB_2, Q14160)	pKd (TJP1_2, Q07157)	pKd (TX1BP3, O14907)	Binder	also measured
below the threshold	below the threshold	below the threshold	3.87	below the threshold	below the threshold	below the threshold	below the threshold	below the threshold	below the threshold	below the threshold	below the threshold	below the threshold	below the threshold	4	below the threshold	4.09	below the threshold	below the threshold	below the threshold	VGIERETDVL [EZH1, Q92800]	pKd (ARHGAP21, Q5T5U3): 3.92; pKd (DLG2_2, Q15700): below the threshold; pKd (FRMPD2_1, Q68DX3): below the threshold; pKd (GRID2IP_2, A4D2P6): below the threshold; pKd (HTRA1, Q92743): 4.17; pKd (HTRA3, P83110): below the threshold; pKd (IL16_3, Q14005): below the threshold; pKd (SYNJ2BP, P57105): below the threshold
3.51	below the threshold	below the threshold	3.82	3.77	below the threshold	below the threshold	below the threshold	below the threshold	3.48	below the threshold	below the threshold	3.54	below the threshold	below the threshold	below the threshold	below the threshold	3.64	below the threshold	3.71	GDHLDRRVVL [VAC14, Q08AM6]	pKd (ARHGAP21, Q5T5U3): 3.54; pKd (DLG2_2, Q15700): below the threshold; pKd (FRMPD2_1, Q68DX3): 3.62; pKd (GRID2IP_2, A4D2P6): below the threshold; pKd (HTRA1, Q92743): 4.25; pKd (HTRA3, P83110): below the threshold; pKd (IL16_3, Q14005): 3.58; pKd (LIN7A, O14910): below the threshold; pKd (SYNJ2BP, P57105): below the threshold
below the threshold	below the threshold	below the threshold	below the threshold	below the threshold	below the threshold	below the threshold	below the threshold	below the threshold	below the threshold	below the threshold	below the threshold	below the threshold	below the threshold	below the threshold	below the threshold	below the threshold	below the threshold	below the threshold	below the threshold	EYRKDNKVAA [LSM14A, Q8ND56;Q8ND56-2]	pKd (GRID2IP_2, A4D2P6): below the threshold; pKd (HTRA3, P83110): below the threshold; pKd (LIN7A, O14910): below the threshold; pKd (SYNJ2BP, P57105): below the threshold

Further lines, the binder ahead of its results:

Binder	pKd (DFNB31_2, Q9P202)	pKd (DLG4_3, P78352)	pKd (DLG5_1, Q8TDM6)	pKd (FRMPD4, Q14CM0)	pKd (GORASP1, Q9BQQ3)	pKd (GRIP1_7, Q9Y3R0)	pKd (GRIP2_3, Q9C0E4)	pKd (Inadl_10, Q8NI35)	pKd (Inadl_2, Q8NI35)	pKd (Inadl_5, Q8NI35)	pKd (Inadl_8, Q8NI35)	pKd (LNX1_2, Q8TBB1)	pKd (MAGI2_3, Q86UL8)	pKd (MAGI2_5, Q86UL8)	pKd (MAGI3_2, Q5TCQ9)	pKd (PDZD2_2, O15018)	pKd (PICK1, Q9NRD5)	pKd (SCRIB_2, Q14160)	pKd (TJP1_2, Q07157)	pKd (TX1BP3, O14907)	also measured
LRYARPADAL [PPP1R3G, B7ZBB8]	below the threshold	below the threshold	below the threshold	3.66	below the threshold	below the threshold	below the threshold	below the threshold	below the threshold	below the threshold	below the threshold	below the threshold	below the threshold	below the threshold	below the threshold	below the threshold	below the threshold	below the threshold	below the threshold	below the threshold	pKd (ARHGAP21, Q5T5U3): 3.9; pKd (DLG2_2, Q15700): below the threshold; pKd (FRMPD2_1, Q68DX3): below the threshold; pKd (GRID2IP_2, A4D2P6): below the threshold; pKd (HTRA1, Q92743): 3.67; pKd (HTRA3, P83110): below the threshold; pKd (IL16_3, Q14005): below the threshold; pKd (LIN7A, O14910): below the threshold; pKd (SYNJ2BP, P57105): below the threshold
KSTTRSSSSC [NDE1, Q9NXR1;Q9NXR1-2]	below the threshold	below the threshold	below the threshold	below the threshold	below the threshold	below the threshold	below the threshold	below the threshold	below the threshold	below the threshold	4.18	below the threshold	below the threshold	below the threshold	below the threshold	4.09	below the threshold	below the threshold	below the threshold	3.93	pKd (ARHGAP21, Q5T5U3): below the threshold; pKd (DLG2_2, Q15700): below the threshold; pKd (FRMPD2_1, Q68DX3): below the threshold; pKd (HTRA1, Q92743): below the threshold; pKd (IL16_3, Q14005): below the threshold; pKd (LIN7A, O14910): below the threshold

Reference: PMC9482650, “Quantitative fragmentomics allow affinity mapping of interactomes” (Nature Communications, 2022)
